# Columns and labels:
# [1] = biological target: recombinant human GIF secreted by COS-1 cells co-transfected with SRα-hcGIF and SRα-hfurin (human); assay: absorption on 388F1-Sepharose; titration of GIF bioactivity in the fractions
# [2] = biological target: recombinant human GIF secreted by COS-1 cells co-transfected with SRα-hcGIF and SRα-hfurin (human); assay: absorption on 388F1-Sepharose, acid elution; 12H5 GIF bioassay
# [3] = biological target: bovine serum albumin (BSA) (bovine) (UniProt P02769); assay: same ELISA, control wells
# Sequence of UniProt P02769 (P02769 25-607 limits assumed): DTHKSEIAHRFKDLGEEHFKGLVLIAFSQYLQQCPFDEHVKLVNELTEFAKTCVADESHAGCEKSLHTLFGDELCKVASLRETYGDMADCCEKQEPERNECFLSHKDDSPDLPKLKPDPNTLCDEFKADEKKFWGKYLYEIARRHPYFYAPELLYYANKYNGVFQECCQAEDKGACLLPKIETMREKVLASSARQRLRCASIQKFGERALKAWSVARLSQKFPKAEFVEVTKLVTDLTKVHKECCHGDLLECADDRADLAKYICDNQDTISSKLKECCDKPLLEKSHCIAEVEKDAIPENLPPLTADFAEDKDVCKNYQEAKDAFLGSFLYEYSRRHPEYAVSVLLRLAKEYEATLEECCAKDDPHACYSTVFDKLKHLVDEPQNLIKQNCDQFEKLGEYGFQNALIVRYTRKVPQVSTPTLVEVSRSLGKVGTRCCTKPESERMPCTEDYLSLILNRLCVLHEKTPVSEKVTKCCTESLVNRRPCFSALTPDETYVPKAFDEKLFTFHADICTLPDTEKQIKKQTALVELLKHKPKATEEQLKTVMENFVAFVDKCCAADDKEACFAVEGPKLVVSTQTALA
# [4] = biological target: flow-through fraction from 110BH3-Sepharose of the culture supernatant of anti-CD3-stimulated AC5 cells; assay: ELISA on wells coated with the flow-through fraction from 110BH3-Sepharose; biotinylated 388F1, amplification system
# [5] = biological target: PLA2-binding GIF (antigen-binding GIF) from anti-CD3-stimulated human T-cell hybridoma AC5 (human)
substance,measurement,setting,value
monoclonal anti-human GIF antibody 388F1 (ATCC HB 10472),GIF activity of the flow-through relative to the eluate fraction,[1],< 0.1 fold
same,GIF activity recovered in the acid eluate fraction,[2],> 75%
same,"ELISA control (nonspecific binding to BSA-coated wells, OD 410)",[3],0.1 OD 410
same,ELISA signal (absorption at 490 nm) (absorbance 490 nm),[4],0.36
same,ELISA signal (absorption at 490 nm) (absorbance 490 nm),[5],0.86
